Where a chain is given by its changes, count along the chain named. Numbers in names are those of the source.
Legend:
human OX40-ECD-his = target: T1, human OX40-ECD-his (human, UniProt P43489 29-214); assay: ELISA, scFv supernatant on coated human OX40-ECD-his, anti-c-myc detection
T1 construct: whole entry named
T1 sequence: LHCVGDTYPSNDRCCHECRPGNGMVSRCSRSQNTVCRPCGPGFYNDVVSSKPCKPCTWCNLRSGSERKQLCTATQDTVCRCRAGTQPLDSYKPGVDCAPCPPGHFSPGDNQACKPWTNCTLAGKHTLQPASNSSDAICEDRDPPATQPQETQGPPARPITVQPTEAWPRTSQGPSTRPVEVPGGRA
Experimental: The binding of scFv clones was assessed by ELISA. Individual E. coli colonies from the second round of selection were picked and grown in 2YT ampicillin medium (96-well deep well plates). ScFv expression was induced by addition of 1 mM of IPTG and incubation ON at 30° C. and 250 RPM. Cells were centrifuged and culture supernatant were used for screening. RIA/EIA plates were coated with either 200 ng/well of human OX40-ECD-his or cynomolgus OX40-ECD-Fc. In order to discriminate potential antibodies selected against the Fc fragment, a plate was also coated with an irrelevant Fc fused antigen. The plates were then blocked with PBS supplemented with 3% Bovine Serum Albumin (BSA). 80 μL of bacteria culture supernatants were then mixed with 20 μl of 3% BSA and added to the blocked plates for 1 hr at room temperature. Bound scFvs were detected using a biotinylated chicken anti-c-myc antibody diluted 1:5000 in PBS-0.3% BSA incubated for 1 hr at RT, followed by staining with the Pierce High Sensitivity Streptavidin-HRP reagent diluted 1:8000 in PBS-0.3% BSA for 30 min at RT. Plates were extensively washed using PBS supplemented with 0.05% Tween 20 between each incubation step. […] Clones that bound specifically to both human and cynomolgus OX40 but not to irrelevant antigen-Fc fusion protein were DNA sequenced.

[1] = target: T2, Human CD16b (NA2 allotype), Sino Biological 11046-H08H (human, UniProt O75015 17-200); assay: SPR Biacore 8K+, receptor captured by anti-His, antibody as analyte
T2 construct: also called FcγRIIIb
T2 sequence (O75015 17-200 N65S limits assumed): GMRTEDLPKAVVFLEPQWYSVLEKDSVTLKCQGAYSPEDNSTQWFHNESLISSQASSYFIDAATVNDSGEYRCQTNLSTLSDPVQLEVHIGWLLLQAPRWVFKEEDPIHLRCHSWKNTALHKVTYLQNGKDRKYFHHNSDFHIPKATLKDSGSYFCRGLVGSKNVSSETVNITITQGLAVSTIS
Experimental: (§1) Measurements were performed on a Biacore 8K+ instrument (Cytiva Life Sciences) using the Biacore 8K+ Control Software and analyzed with the Biacore Insight Evaluation Software (v3.0). […] After each binding event, baseline levels were restored using a regeneration solution on both flow-paths. HBS-EP+pH 7.4 solution were used as running buffer. Data was analyzed using the MCK evaluation method of the Biacore Insight Evaluation Software and kinetic parameters were determined using the 1:1 binding and steady-state affinity methods.
(§2) Each measurement is the mean of three identical replicate conditions.

[2] = target: Human CD64 (FcγRI), Sino Biological 10256-H08H (human, UniProt P12314 16-288); assay: as above
Chain of Human CD64 (FcγRI), Sino Biological 10256-H08H (P12314 16-288 limits assumed): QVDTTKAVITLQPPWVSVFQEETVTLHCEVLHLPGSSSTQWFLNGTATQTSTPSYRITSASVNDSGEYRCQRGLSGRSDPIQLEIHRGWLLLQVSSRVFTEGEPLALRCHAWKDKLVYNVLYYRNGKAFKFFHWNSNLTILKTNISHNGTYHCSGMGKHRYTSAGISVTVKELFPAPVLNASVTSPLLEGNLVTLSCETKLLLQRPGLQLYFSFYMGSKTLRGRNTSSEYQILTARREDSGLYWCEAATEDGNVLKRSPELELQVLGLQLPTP
Experimental: as §1, §2

[3] = target: T3, Human CD32a (167 His), Sino Biological 10374-H08H1 (human, UniProt P12318 34-218); assay: as above
T3 construct: also called FcγRIIa167H
T3 sequence (looked up): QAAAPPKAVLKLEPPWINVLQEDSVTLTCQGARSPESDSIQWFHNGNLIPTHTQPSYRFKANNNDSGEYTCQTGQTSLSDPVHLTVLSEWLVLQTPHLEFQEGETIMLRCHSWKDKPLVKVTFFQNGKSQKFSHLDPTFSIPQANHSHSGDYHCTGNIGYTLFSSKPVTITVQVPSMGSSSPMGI
Experimental: as §1, §2

[4] = target: T4, Human CD32a (167 Arg), Sino Biological 10374-H08H (human, UniProt P12318 34-218); assay: as above
T4 construct: also called FcγRIIa167R
T4 sequence (looked up): T3 sequence (looked up) with H134R
Experimental: as §1, §2

[5] = target: T5, Human CD16a (176F), Sino Biological 10389-H08H (human, UniProt P08637 17-208); assay: as above
T5 construct: also called FcγRIIIa176F
T5 sequence (P08637 17-208 limits assumed): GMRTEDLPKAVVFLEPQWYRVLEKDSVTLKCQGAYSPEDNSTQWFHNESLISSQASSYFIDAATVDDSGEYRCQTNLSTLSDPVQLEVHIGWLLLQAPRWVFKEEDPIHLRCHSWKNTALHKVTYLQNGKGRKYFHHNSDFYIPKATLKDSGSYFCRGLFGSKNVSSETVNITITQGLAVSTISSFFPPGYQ
Experimental: as §1, §2

[6] = target: T6, Human CD32b, Sino Biological 10259-H08H (human, UniProt P31994 43-217); assay: as above
T6 construct: also called FcγRIIb
T6 sequence (looked up): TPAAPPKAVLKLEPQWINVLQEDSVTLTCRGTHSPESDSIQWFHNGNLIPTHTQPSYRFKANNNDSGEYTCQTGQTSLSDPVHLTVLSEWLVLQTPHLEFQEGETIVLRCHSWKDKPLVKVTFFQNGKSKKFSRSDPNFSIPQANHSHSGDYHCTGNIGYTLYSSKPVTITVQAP
Experimental: as §1, §2

[7] = target: T7, Human CD16a (F176V), Sino Biological 10389-H08H1 (human, UniProt P08637 17-208); assay: as above
T7 construct: also called FcγRIIIa176V
T7 sequence (P08637 17-208 F176V limits assumed): as the sequence (P08637 17-208 limits assumed) above, with F160V counted along it
Experimental: as §1, §2

[8] = target: T8, human OX40 (TNFRSF4, CD134) on cells (human, UniProt P43489 29-277); assay: cell-based or functional assay
T8 sequence: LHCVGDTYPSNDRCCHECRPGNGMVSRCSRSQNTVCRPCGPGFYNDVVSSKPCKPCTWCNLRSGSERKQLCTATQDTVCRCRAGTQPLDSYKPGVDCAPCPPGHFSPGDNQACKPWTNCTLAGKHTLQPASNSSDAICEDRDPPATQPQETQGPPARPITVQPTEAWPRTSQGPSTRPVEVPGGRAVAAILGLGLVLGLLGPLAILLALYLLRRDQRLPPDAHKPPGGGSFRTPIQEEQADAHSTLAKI

[9] = target: T8, human OX40 (TNFRSF4, CD134) on cells; assay: cell-based or functional assay; remark: listed apart in the source
[10] = target: T8, human OX40 (TNFRSF4, CD134) on cells; assay: flow cytometry on Jurkat-NFκB (OX40) cells, detection with anti-human IgG Fc-AF647

B1: MAB8 scFv clone (scFv)
scFv: QVTLKESGPALVKPTQTLTLTCSFSGFSLSTSGMGVGWIRQPPGKALEWIAHIWWDDDKYYNTALKTRLTISKDTSKNQVVLTMTNMDPVDTATYYCARIDWDGFAYWGQGTLVTVSSGGGGSGGGGSGGGGSEIVLTQSPATLSLSPGERATLSCRASSSVSYMHWYQQKPGQAPRPWIYATSNRATGIPARFSGSGSGTDYTLTISSLEPEDFAVYYCQQTVAWPWTFGQGTKVEIK
Does B1 bind (human OX40-ECD-his)?
Result: binds

B2: MAB7 scFv clone (scFv)
scFv: B1 scFv with T223M, V224E, A225F, W226T
Does B2 bind (human OX40-ECD-his)?
Result: binds

B3: MAB3 scFv clone (scFv)
scFv: B1 scFv with V224I, A225E
Does B3 bind (human OX40-ECD-his)?
Result: binds

B4: MAB4 scFv clone (scFv)
scFv: B1 scFv with V224L, A225L, W226F
Does B4 bind (human OX40-ECD-his)?
Result: binds

B5: MAB2 scFv clone (scFv)
scFv: B1 scFv with T223F, V224G, A225D, W226P
Does B5 bind (human OX40-ECD-his)?
Result: binds

B6: MAB9 scFv clone (scFv)
scFv: B1 scFv with Q222A, T223A, V224S, A225S, W226S, P227S, W228L, T229E
Does B6 bind (human OX40-ECD-his)?
Result: binds

B7: MAB6 scFv clone (scFv)
scFv: B1 scFv with T223W, V224E, A225T
Does B7 bind (human OX40-ECD-his)?
Result: binds

B8: MAB1 scFv clone (scFv)
scFv: B1 scFv with T223F, V224G
notes: Phage library scFv in bacterial culture supernatant
Does B8 bind (human OX40-ECD-his)?
Result: binds

B9: MAB5 scFv clone (scFv)
scFv: B1 scFv with V224L, A225H, W226Y
Does B9 bind (human OX40-ECD-his)?
Result: binds

B10: MAB11 (antibody, human IgG1, kappa)
heavy: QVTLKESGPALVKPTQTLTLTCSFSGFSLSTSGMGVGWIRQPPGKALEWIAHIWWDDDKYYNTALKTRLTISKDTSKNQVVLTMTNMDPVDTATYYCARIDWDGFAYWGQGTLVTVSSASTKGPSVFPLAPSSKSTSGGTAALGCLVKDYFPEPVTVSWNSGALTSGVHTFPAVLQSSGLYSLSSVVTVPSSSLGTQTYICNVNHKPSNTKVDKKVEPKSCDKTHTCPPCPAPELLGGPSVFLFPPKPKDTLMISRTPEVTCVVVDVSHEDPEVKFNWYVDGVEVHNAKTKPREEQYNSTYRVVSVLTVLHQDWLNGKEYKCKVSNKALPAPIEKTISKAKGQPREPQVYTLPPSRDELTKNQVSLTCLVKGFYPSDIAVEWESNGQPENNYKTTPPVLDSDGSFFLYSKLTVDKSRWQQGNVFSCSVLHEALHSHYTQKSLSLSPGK
light: EIVLTQSPATLSLSPGERATLSCRASSSVSYMHWYQQKPGQAPRPWIYATSNRATGIPARFSGSGSGTDYTLTISSLEPEDFAVYYCQQFGAWPWTFGQGTKVEIKRTVAAPSVFIFPPSDEQLKSGTASVVCLLNNFYPREAKVQWKVDNALQSGNSQESVTEQDSKDSTYSLSSTLTLSKADYEKHKVYACEVTHQGLSSPVTKSFNRGEC
notes: IgG1 with M428L and N434S; also called MAB1 Heavy Chain + LS
Which results are given for B10?
Kd [1]: 2.74 µM; Kd [2]: 0.0063 µM; Kd [3]: 3.38 µM; Kd [4]: 5.43 µM; Kd [5]: 0.246 µM; Kd [6]: 9.88 µM; Kd [7]: 0.221 µM

B11: OX40L (recombinant human OX40 ligand) (ligand, UniProt P23510 51-183, looked up)
chain: QVSHRYPRIQSIKVQFTEYKKEKGFILTSQKEDEIMKVQNNSVIINCDGFYLISLKGYFSQEVNISLHYQKDEEPLFQLKKVRSVNSLMVASLTYKDKVYLNVTTDNTSLDDFHVNGGELILIHQNPGEFCVL
With B11 as the binder, how does the “luminescence, Jurkat-NFκB-OX40 agonism assay” value [8] read?
Its value is 8 fold.

And the “average proliferation index (Av), coated T cell agonism assay” value [9]?
The value was 5.61.

B12: OX40L (P865) (Fc fusion, human, UniProt P23510 51-183, looked up)
OX40L-Fc chain: B11 chain
notes: the sheet prints OX40L (P865) in the legend box and OX40L (P685) beside the curve; also called OX40L-Fc; OX40L (P685)
Which “EC50 (read off the curve)” value [10] does the source give for B12 here?
The value was ~0.2 µg/mL.
